Where a chain is given by its changes, count along the chain named. In names and notes the source's numbering stands.
Biological target: T1, EsCas13d, nuclease-dead (Eubacterium siraeum, UniProt B0MS50, R295A;H300A;R849A;H854A)
T1 sequence: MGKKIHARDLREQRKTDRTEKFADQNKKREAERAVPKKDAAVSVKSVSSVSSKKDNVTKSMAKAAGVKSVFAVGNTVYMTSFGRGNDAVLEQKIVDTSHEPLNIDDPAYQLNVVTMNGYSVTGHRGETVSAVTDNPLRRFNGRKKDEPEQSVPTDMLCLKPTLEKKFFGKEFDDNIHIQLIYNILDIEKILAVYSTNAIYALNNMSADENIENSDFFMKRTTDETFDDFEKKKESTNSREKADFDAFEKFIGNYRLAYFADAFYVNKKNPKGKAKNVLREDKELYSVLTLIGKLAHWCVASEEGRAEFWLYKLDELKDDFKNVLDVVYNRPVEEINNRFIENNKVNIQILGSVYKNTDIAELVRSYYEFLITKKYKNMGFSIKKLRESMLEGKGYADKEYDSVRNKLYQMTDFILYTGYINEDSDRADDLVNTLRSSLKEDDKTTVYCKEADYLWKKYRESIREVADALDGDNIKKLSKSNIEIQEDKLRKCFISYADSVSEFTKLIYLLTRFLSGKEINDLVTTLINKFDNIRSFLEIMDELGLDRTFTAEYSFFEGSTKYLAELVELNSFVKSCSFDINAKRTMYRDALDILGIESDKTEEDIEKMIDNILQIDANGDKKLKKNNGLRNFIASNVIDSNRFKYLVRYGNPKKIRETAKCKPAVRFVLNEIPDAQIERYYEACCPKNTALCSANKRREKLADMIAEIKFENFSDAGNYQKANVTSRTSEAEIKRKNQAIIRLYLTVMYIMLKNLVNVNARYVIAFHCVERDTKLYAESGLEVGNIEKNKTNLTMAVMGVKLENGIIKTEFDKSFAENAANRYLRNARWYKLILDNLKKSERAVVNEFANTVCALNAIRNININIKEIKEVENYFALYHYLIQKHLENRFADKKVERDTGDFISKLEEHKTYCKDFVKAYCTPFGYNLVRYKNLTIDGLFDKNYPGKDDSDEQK
Test: crRNA (strand 1, pre-loaded); Mg2+; 40 mM Tris-HCl pH 7.5, 150 mM NaCl, 6 mM MgCl2, 1 mM DTT, 0.1% Tween-20, 0.2 mg/ml BSA; 25 C; 10 min per concentration, then washed
Settings: tags: His6-TwinStrep-SUMO cleaved; N-terminal SNAP kept (SNAP-Surface 488); label: 3' end held by stalled T7 RNA polymerase

B1: target 2 MT 5'PFS AAU 3'PFS AAU (mixed)
RNA 1: CACCCGUGCAAAAUUGCAGGGGUCUAAAACCUUCUCCAAAUUGUUUCAUCCU
RNA 2: GGGAAUGGAUCCACAUCUACGAAUUCAAUAGGAUGAAACAAUUUGGAGAAGAAUAGAUCGGAAGAGCACACGU
For B1, the Kd was 4.1 ± 0.6 nM.

B2: target 2 MT 5'PFS CGG 3'PFS AUA (mixed)
RNA 1: B1 RNA 1
RNA 2: B1 RNA 2 with A27C, A28G, U29G, A53U, U54A
In the case of B2, the Kd is reported as 4.1 ± 0.5 nM.

B3: target 2 MT 5'PFS GAG 3'PFS AAU (mixed)
RNA 1: B1 RNA 1
RNA 2: B1 RNA 2 with A27G, U29G
B3 gave a Kd of 5.6 ± 0.7 nM.

B4: target 2 MT 5'PFS CUU 3'PFS CCC (mixed)
RNA 1: B1 RNA 1
RNA 2: B1 RNA 2 with A27C, A28U, A52C, A53C, U54C
With B4 the Kd was 18 ± 9 nM.

B5: target 2 MT 5'PFS UUA 3'PFS AAU (mixed)
RNA 1: B1 RNA 1
RNA 2: B1 RNA 2 with A27U, A28U, U29A
B5 was tested, and the Kd was 18 ± 5 nM.

B6: target 2 MT 5'PFS GAA 3'PFS AUU (mixed)
RNA 1: B1 RNA 1
RNA 2: B1 RNA 2 with A27G, U29A, A53U
B6 showed a Kd of 7.3 ± 1.1 nM.

B7: target 2 MT 5'PFS GUA 3'PFS CUC (mixed)
RNA 1: B1 RNA 1
RNA 2: B1 RNA 2 with A27G, A28U, U29A, A52C, A53U, U54C
With B7 the Kd was 15.5 ± 2.6 nM.

B8: target 2 MT 5'PFS CGG 3'PFS AUC (mixed)
RNA 1: B1 RNA 1
RNA 2: B1 RNA 2 with A27C, A28G, U29G, A53U, U54C
In the case of B8, the Kd is reported as 6.8 ± 1.1 nM.

B9: target 2 MT 5'PFS UAU 3'PFS UCU (mixed)
RNA 1: B1 RNA 1
RNA 2: B1 RNA 2 with A27U, A52U, A53C
B9 showed a Kd of 81 ± 23 nM.

B10: target 2 MT 5'PFS GUA 3'PFS CUG (mixed)
RNA 1: B1 RNA 1
RNA 2: B1 RNA 2 with A27G, A28U, U29A, A52C, A53U, U54G
B10 was tested, and the Kd was 11.1 ± 1.2 nM.

B11: target 2 MT 5'PFS AGG 3'PFS AAA (mixed)
RNA 1: B1 RNA 1
RNA 2: B1 RNA 2 with A28G, U29G, U54A
Binder B11 has a Kd of 4.3 ± 0.9 nM.

B12: target 2 MT 5'PFS UGA 3'PFS AGC (mixed)
RNA 1: B1 RNA 1
RNA 2: B1 RNA 2 with A27U, A28G, U29A, A53G, U54C
B12 was tested, and the Kd was 6 ± 0.9 nM.

B13: target 2 MT 5'PFS AUU 3'PFS ACG (mixed)
RNA 1: B1 RNA 1
RNA 2: B1 RNA 2 with A28U, A53C, U54G
Binder B13 has a Kd of 9 ± 1 nM.

B14: target 2 MT 5'PFS CUU 3'PFS CCA (mixed)
RNA 1: B1 RNA 1
RNA 2: B1 RNA 2 with A27C, A28U, A52C, A53C, U54A
Binder B14 has a Kd of 8.9 ± 1.1 nM.

B15: target 2 MT 5'PFS AAG 3'PFS AUU (mixed)
RNA 1: B1 RNA 1
RNA 2: B1 RNA 2 with U29G, A53U
For B15, the Kd was 4.1 ± 0.5 nM.

B16: target 2 MT 5'PFS AAG 3'PFS AUC (mixed)
RNA 1: B1 RNA 1
RNA 2: B1 RNA 2 with U29G, A53U, U54C
Binder B16 has a Kd of 5.2 ± 0.9 nM.

B17: target 2 MT 5'PFS UUA 3'PFS AAC (mixed)
RNA 1: B1 RNA 1
RNA 2: B1 RNA 2 with A27U, A28U, U29A, U54C
With B17 the Kd was 18.7 ± 3.1 nM.

B18: target 2 MT 5'PFS UCA 3'PFS UGU (mixed)
RNA 1: B1 RNA 1
RNA 2: B1 RNA 2 with A27U, A28C, U29A, A52U, A53G
B18 was tested, and the Kd was 7.8 ± 1.1 nM.

B19: target 2 MT 5'PFS CUU 3'PFS CCG (mixed)
RNA 1: B1 RNA 1
RNA 2: B1 RNA 2 with A27C, A28U, A52C, A53C, U54G
With B19 the Kd was 6 ± 0.4 nM.

B20: target 2 MT 5'PFS UGA 3'PFS CAG (mixed)
RNA 1: B1 RNA 1
RNA 2: B1 RNA 2 with A27U, A28G, U29A, A52C, U54G
B20 was tested, and the Kd was 6.6 ± 0.7 nM.

B21: target 2 MT 5'PFS AUU 3'PFS ACC (mixed)
RNA 1: B1 RNA 1
RNA 2: B1 RNA 2 with A28U, A53C, U54C
Binder B21 has a Kd of 15.2 ± 3.1 nM.

B22: target 2 MT 5'PFS CGG 3'PFS AUU (mixed)
RNA 1: B1 RNA 1
RNA 2: B1 RNA 2 with A27C, A28G, U29G, A53U
For B22, the Kd was 4.01 ± 0.28 nM.

B23: target 2 MT 5'PFS UUC 3'PFS CCC (mixed)
RNA 1: B1 RNA 1
RNA 2: B1 RNA 2 with A27U, A28U, U29C, A52C, A53C, U54C
For B23, the Kd was ~29 nM.

B24: target 2 MT 5'PFS AUU 3'PFS ACA (mixed)
RNA 1: B1 RNA 1
RNA 2: B1 RNA 2 with A28U, A53C, U54A
For B24, the Kd was 9.5 ± 2 nM.

B25: target 2 MT 5'PFS UGA 3'PFS ACC (mixed)
RNA 1: B1 RNA 1
RNA 2: B1 RNA 2 with A27U, A28G, U29A, A53C, U54C
For B25, the Kd was 16 ± 4 nM.

B26: target 2 MT 5'PFS UGA 3'PFS ACA (mixed)
RNA 1: B1 RNA 1
RNA 2: B1 RNA 2 with A27U, A28G, U29A, A53C, U54A
In the case of B26, the Kd is reported as 9.1 ± 1 nM.

B27: target 2 MT 5'PFS UUA 3'PFS AAA (mixed)
RNA 1: B1 RNA 1
RNA 2: B1 RNA 2 with A27U, A28U, U29A, U54A
B27 was tested, and the Kd was 14.6 ± 2.7 nM.

B28: target 2 MT 5'PFS UGA 3'PFS ACG (mixed)
RNA 1: B1 RNA 1
RNA 2: B1 RNA 2 with A27U, A28G, U29A, A53C, U54G
B28 was tested, and the Kd was 11.6 ± 1.9 nM.

B29: target 2 MT 5'PFS UGA 3'PFS ACU (mixed)
RNA 1: B1 RNA 1
RNA 2: B1 RNA 2 with A27U, A28G, U29A, A53C
B29 was tested, and the Kd was 15.6 ± 3.5 nM.

B30: target 2 MT 5'PFS AUG 3'PFS CGC (mixed)
RNA 1: B1 RNA 1
RNA 2: B1 RNA 2 with A28U, U29G, A52C, A53G, U54C
B30 showed a Kd of 8.1 ± 0.8 nM.

B31: target 2 MT 5'PFS GUA 3'PFS CUA (mixed)
RNA 1: B1 RNA 1
RNA 2: B1 RNA 2 with A27G, A28U, U29A, A52C, A53U, U54A
B31 was tested, and the Kd was 6.5 ± 0.6 nM.

B32: target 2 MT 5'PFS GUA 3'PFS CUU (mixed)
RNA 1: B1 RNA 1
RNA 2: B1 RNA 2 with A27G, A28U, U29A, A52C, A53U
B32 was tested, and the Kd was 10.2 ± 1 nM.

B33: target 2 MT 5'PFS UUA 3'PFS AAG (mixed)
RNA 1: B1 RNA 1
RNA 2: B1 RNA 2 with A27U, A28U, U29A, U54G
Binder B33 has a Kd of 17.5 ± 1.8 nM.

B34: target 2 MT 5'PFS GAA 3'PFS UUU (mixed)
RNA 1: B1 RNA 1
RNA 2: B1 RNA 2 with A27G, U29A, A52U, A53U
B34 was tested, and the Kd was 24 ± 4 nM.

B35: target 2 MT 5'PFS GCU 3'PFS CUA (mixed)
RNA 1: B1 RNA 1
RNA 2: B1 RNA 2 with A27G, A28C, A52C, A53U, U54A
In the case of B35, the Kd is reported as 17 ± 5 nM.

B36: target 1 U11G,A16U (mixed)
RNA 1: CACCCGUGCAAAAAUGCAGGGGUCUAAAACUGAGCGGAUAACCUCUCUAUGG
RNA 2: GGGAAUGGAUCCACAUCUACGAAUUCGUACCAUAGUGAGGGUAUCCGCUCACCGAGAUCGGAAGAGCACACGU
For B36, the Kd was 82 ± 12 nM.

B37: target 1 C7A,U10C (mixed)
RNA 1: B36 RNA 1
RNA 2: B36 RNA 2 with U36A, G41U, U42C, C45A
Binder B37 has a Kd of 13.6 ± 0.7 nM.

B38: target 1 insU 3' of 9,insG 3' of 8 (mixed)
RNA 1: B36 RNA 1
RNA 2: GGGAAUGGAUCCACAUCUACGAAUUCGUACCAUAGAGAGGUUAUUGCCGCUCACCGAGAUCGGAAGAGCACACGU
Binder B38 has a Kd of 8.3 ± 0.5 nM.

Reference: PMC10786891, “Massively parallel profiling of RNA-targeting CRISPR-Cas13d”
